These results are taken from US20230287089A1 (FLAGSHIP PIONEERING INNOVATIONS VI, published 2023).

Test [1] addresses T1, SARS-CoV-2 receptor binding domain (RBD) antigen (SARS-CoV-2, UniProt P0DTC2 319-527).
T1 construct: also called SARS-COV-2 RBD; COV-2 RBD
The test is described as follows: yeast surface display, titration of biotinylated RBD, flow cytometry. In general terms: A flow cytometer gives signals particle by particle.

Test [2] has as its target T1, SARS-CoV-2 receptor binding domain ….

B1: Reference (VH of Reference fused to a c-Myc epitope tag, displayed on yeast) (VHH)
VHH: QVQLQESGGGLVQAGGSLRLSCAASGRTFSEYAMGWFRQAPGKEREFVATISWSGGSTYYTDSVKGRFTISRDNAKNTVYLQMNSLKPDDTAVYYCAAAGLGTVVSEWDYDYDYWGQGTQVTVSS
For the molecule B1, the dissociation constant (Kd) (commonly the equilibrium constant for the complex coming apart) in test [1] worked out at 6 nM. Moreover, in test [2], the EC50 (read off the curve) – broadly, the concentration giving half of the maximal effect – is approximately 6 nM.

B2: AB-2 (VH of AB-2 fused to a c-Myc epitope tag, displayed on yeast) (VHH)
VHH: QVQLQESGGGLVQAGGSLRLSCAASGRTFSEYAMGWFRQAPGKEREFVATISYSGGSTYYTDSVKGRFTISRDNAKNTVYLQMNSLKPDDTAVYYCAAAGLGVHVSEWDYDYDYWGQGTQVTVSS
As for B2, in test [1], the Kd worked out at 6.6 nM. The “EC50 (read off the curve)” value in test [2] is approximately 6 nM.

B3: AB-1 (VH of AB-1 fused to a c-Myc epitope tag, displayed on yeast) (VHH)
VHH: QVQLQESGGGLVQAGGSLRLSCAASGRTFSEYAMGWFRQAPGKEREFVATISWSGGSTYYTDSVKGRFTISRDNAKNTVYLQMNSLKPDDTAVYYCAAAGLGVVLSEWDYDYDYWGQGTQVTVSS
On to B3, for which binding in test [1] was put at a Kd of 9.3 nM. In addition, the “EC50 (read off the curve)” value in test [2] is approximately 5 nM.
